Results from patent publication US10494415B2, “Insulin-like growth factor 2 (IGF2) binding agents” (Cancer Research Technology Limited, priority 2015, dated 2019).
Numbering of substitutions follows the chain as printed. Names may count otherwise. Blank lines part the entries; values can stand above or below the molecule they belong to.

Legend:
[1] = tested on: Ewing sarcoma cell line (SKNMC); assay: Synthetic lethality hit validation dose response curves; assay type: cell-based; details: Homo sapiens, SK-N-MC
Method: For synthetic lethality hit validation, fresh stocks of the […] drugs selected as hits were obtained (pictilisib, SYNkinase and PF-04691502, Cayman Chemical). The interaction of the selected drugs and IGF2-TRAP were evaluated by Q-value calculated by the formula Q=FD+T/FD+(1−FD)FT, where FD+T represents the fraction affected by treatment with the drug plus IGF2-TRAP compared with the untreated control group, FD represents the fraction affected by the drug alone, and FT represents the fraction affected by the IGF2-TRAP alone. A value of Q>1.15 indicates a synergistic effect, Q<0.85 indicates an antagonistic effect, and Q between 0.85 and 1.15 indicates an additive effect.

[2] = target: T1, IGF2 (Homo sapiens, UniProt P01344); details: background, literature references; cited from earlier work
[3] = target: T1, IGF2; assay: SPR (Biacore T200) of recombinant IGF2R domain 11 mutants on immobilised biotinylated IGF2; assay type: binding; parameters: purchased GroPep
Summary of the method: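 Biotinylated IGF2 (or IGF1) captured on streptavidin chip; domain 11 mutants (E. coli or P. pastoris, AB5 background) injected at 25 °C, 40 μL/min, in HBS-EP pH 7.4 or MES-EP pH 6.5. kon/koff from 1:1 fit; KD as mean of 2-5 repeats.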

[4] = target: IGF1 (Homo sapiens, UniProt P05019); assay: SPR of domain 11 mutants on immobilised biotinylated IGF1 (specificity); assay type: binding
Excerpt: Surface plasmon resonance (SPR) binding analysis of recombinant M6P/IGF2R domain 11 mutants interaction with IGF2. Kon indicates association (on) rate; koff, dissociation (off) rate; RU, response units. Binding to IGF2 assessed with BIAcore T200 using purified biotinylated IGF2 and IGF1 on a streptavidin biosensor chip. Recombinant proteins were expressed either in E. coli and/or P. pastoris. All the mutants in the FG and CD loops are on the domain 11^AB5 background for the AB loop unless otherwise stated. All experiments were carried out at 25° C. in HBS-EP buffer (pH 7.4), were repeated 2-5 times on two independent BIAcore chips. nd=not determined. Data for KD expressed as mean of each experiment, and means of kon and koff are shown.
Final kinetic analysis of mutants by SPR was conducted using a Biacore T200 biosensor at 25° C. in either HBS-EP (10 mM HEPES pH 7.4, 150 mM NaCl, 3 mM EDTA, and 0.005% (v/v) surfactant P20) or MES-EP (20 mM MES pH 6.5, 150 mM NaCl, 3 mM EDTA, and 0.005% (v/v) surfactant P20) at a flow-rate of 40 μL min^−1. […] This interaction was also analysed by immobilizing the Fc-domain 11^AB5 and Fc-domain 11^AB5-RHH (or Fc-domain 11^I1572A as control) by Human Antibody Capture (monoclonal mouse anti-human IgG antibody immobilised on a CM5 chip by amine coupling, GE Healthcare) with and without human IgG1 Fc fragment (Bethyl Laboratories, UK) in the control flow cell. […]

[5] = in the presence of Fc-domain 11^AB5-RHH (IGF2-TRAP)

T1 sequence (P01344 25-91): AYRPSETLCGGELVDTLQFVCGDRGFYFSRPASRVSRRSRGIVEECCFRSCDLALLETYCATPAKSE
Sequence of IGF1 (P05019 49-118): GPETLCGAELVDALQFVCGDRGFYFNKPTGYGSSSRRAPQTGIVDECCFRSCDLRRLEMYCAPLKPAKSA

Molecule: COc1ccc(-c2cc3c(C)nc(N)nc3n([C@H]3CC[C@H](OCCO)CC3)c2=O)cn1 [PF-04691502, 2-amino-8-[trans-4-(2-hydroxyethoxy)cyclohexyl]-6-(6-methoxypyridin-3-yl)-4-methylpyrido-[2,3-d]pyrimidin-7(8H)-one]
IC50 ([1]; drug alone): 0.42 µM
IC50 [1, 5]: 0.092 µM

Molecule: CS(=O)(=O)N1CCN(Cc2cc3nc(-c4cccc5[nH]ncc45)nc(N4CCOCC4)c3s2)CC1 [Pictilisib, 4-[2-(1H-indazol-4-yl)-6-[(4-methylsulfonylpiperazin-1-yl)methyl]thieno[3,2-d]pyrimidin-4-yl]morpholine]
IC50 ([1]; drug alone): 1.1 µM
IC50 [1, 5]: 0.14 µM

Kinetics koff ([3]; Table 1, 25° C., HBS-EP pH 7.4): 0.044 s⁻¹
Kinetics kon ([3]; Table 1, 25° C., HBS-EP pH 7.4): 2.76e+06 M⁻¹ s⁻¹
Kinetics koff ([3]; Table 2): 0.044 s⁻¹
Kinetics kon ([3]; Table 2): 2.76e+06 M⁻¹ s⁻¹
Kinetics koff ([3]; Table 3, 25° C., HBS-EP pH 7.4): 0.044 s⁻¹
Kinetics kon ([3]; Table 3, 25° C., HBS-EP pH 7.4): 2.76e+06 M⁻¹ s⁻¹
Kinetics koff ([3]; Table 4, MES-EP pH 6.5): 0.0381 s⁻¹
Kinetics kon ([3]; Table 4, MES-EP pH 6.5): 3.43e+06 M⁻¹ s⁻¹
B1: AB3: IGF2R domain 11 with AB loop mutations E1544K, K1545S, L1547V (YSKSGV) (protein)
chain: MKSNEHDDCQVTNPSTGHLFDLSSLSGRAGFTAAYSKSGVVYMSICGENENCPPGVGACFGQTRISVGKANKRLRYVDQVLQLVYKDGSPCPSKSGLSYKSVISFVCRPEAGPTNRPMLISLDKQTCTLFFSWHTPLACEQATECSV
Kd [2]: 0.015 µM

Kinetics koff ([3]; Table 3, 25° C., HBS-EP pH 7.4): 0.005 s⁻¹
B2: AB5 Q1569R P1597H S1602H G1603K: domain 11 AB5 + Q1569R, P1597H, S1602H, G1603K (protein)
chain: B1 chain with S36A, S38G, G39W, V40G, Q62R, P90H, S95H, G96K

Kinetics koff ([3]; Table 3, 25° C., HBS-EP pH 7.4): 0.0058 s⁻¹
Kinetics kon ([3]; Table 3, 25° C., HBS-EP pH 7.4): 6.67e+06 M⁻¹ s⁻¹
Kinetics koff ([3]; Table 4, MES-EP pH 6.5): 0.0051 s⁻¹
Kinetics kon ([3]; Table 4, MES-EP pH 6.5): 7.54e+06 M⁻¹ s⁻¹
B3: AB5 Q1569R P1597H G1603K: domain 11 AB5 + Q1569R, P1597H, G1603K (protein)
chain: B1 chain with S36A, S38G, G39W, V40G, Q62R, P90H, G96K

Kinetics koff ([3]; Table 3, 25° C., HBS-EP pH 7.4): 0.0115 s⁻¹
Kinetics kon ([3]; Table 3, 25° C., HBS-EP pH 7.4): 1.12e+07 M⁻¹ s⁻¹
B4: AB5 Q1569R P1597H K1631W: domain 11 AB5 + Q1569R, P1597H, K1631W (protein)
chain: B1 chain with S36A, S38G, G39W, V40G, Q62R, P90H, K124W

Kinetics koff ([3]; Table 1, 25° C., HBS-EP pH 7.4): 0.0208 s⁻¹
Kinetics kon ([3]; Table 1, 25° C., HBS-EP pH 7.4): 4.21e+06 M⁻¹ s⁻¹
Kinetics koff ([3]; Table 3, 25° C., HBS-EP pH 7.4): 0.0208 s⁻¹
Kinetics kon ([3]; Table 3, 25° C., HBS-EP pH 7.4): 4.21e+06 M⁻¹ s⁻¹
Kinetics koff ([3]; Table 4, MES-EP pH 6.5): 0.0180 s⁻¹
Kinetics kon ([3]; Table 4, MES-EP pH 6.5): 4.17e+06 M⁻¹ s⁻¹
IGF2 specificity with respect to IGF1 [4]: retained IGF2 specificity
B5: AB5: IGF2R domain 11 with five AB loop mutations S1543A, E1544K, K1545G, G1546W, L1547G (YAKGWG) (protein)
chain: B1 chain with S36A, S38G, G39W, V40G

Kinetics koff ([3]; Table 3, 25° C., HBS-EP pH 7.4): 0.008 s⁻¹
B6: AB5 Q1569R P1597K S1602H G1603K: domain 11 AB5 + Q1569R, P1597K, S1602H, G1603K (protein)
chain: B1 chain with S36A, S38G, G39W, V40G, Q62R, P90K, S95H, G96K

Kinetics koff ([3]; Table 1, 25° C., HBS-EP pH 7.4): 0.23 s⁻¹
Kinetics kon ([3]; Table 1, 25° C., HBS-EP pH 7.4): 5e+06 M⁻¹ s⁻¹
Kinetics koff ([3]; Table 2): 0.23 s⁻¹
Kinetics kon ([3]; Table 2): 5e+06 M⁻¹ s⁻¹
Kinetics koff ([3]; Table 4, MES-EP pH 6.5): 0.1441 s⁻¹
Kinetics kon ([3]; Table 4, MES-EP pH 6.5): 2.68e+06 M⁻¹ s⁻¹
ΔH of IGF2 interaction ([3]; van't Hoff, 10° C. to 30° C.): < 0
−TΔS of IGF2 interaction ([3]; van't Hoff, 10° C. to 30° C.): > 0
B7: WT: wild-type human IGF2R domain 11 (residues 1511-1650), AB loop YSEKGL (protein)
chain: B1 chain with K37E, S38K, V40L
Kd [2]: 0.04 to 0.06 µM
